T1: rmTLR2/Fc (recombinant murine TLR-2) (Mus musculus, UniProt Q9QUN7 25-587, limits assumed)
T1 construct: Recombinant Fc fusion used as SPR analyte, MW of 98 kDa printed; also called murine receptor
T1 sequence: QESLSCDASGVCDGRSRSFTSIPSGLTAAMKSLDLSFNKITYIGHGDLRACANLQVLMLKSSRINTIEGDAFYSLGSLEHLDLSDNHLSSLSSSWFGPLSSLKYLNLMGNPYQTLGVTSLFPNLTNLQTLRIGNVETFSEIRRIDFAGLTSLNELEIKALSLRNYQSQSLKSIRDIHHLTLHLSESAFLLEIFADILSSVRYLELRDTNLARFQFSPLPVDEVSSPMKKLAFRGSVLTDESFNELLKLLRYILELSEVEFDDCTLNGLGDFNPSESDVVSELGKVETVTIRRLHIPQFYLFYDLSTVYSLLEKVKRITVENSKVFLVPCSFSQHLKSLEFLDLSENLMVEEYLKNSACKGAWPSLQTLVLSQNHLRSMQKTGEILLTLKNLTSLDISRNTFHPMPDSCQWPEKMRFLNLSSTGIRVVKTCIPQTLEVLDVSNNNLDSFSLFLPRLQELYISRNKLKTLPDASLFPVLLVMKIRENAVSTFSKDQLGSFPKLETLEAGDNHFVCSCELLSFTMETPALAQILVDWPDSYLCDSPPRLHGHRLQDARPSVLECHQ


Legend:
[1] = target: T1, rmTLR2/Fc (recombinant murine TLR-2); assay: SPR, Biacore T100, antibody amine-coupled to CM5 chip, receptor as analyte, bivalent binding model, 25 C
Description: (§1) Upon insertion of the CM5 chip the system was primed and then normalised with BIAnormalising solution (Biacore Preventative Maintenance Kit 2). All samples were run at 25° C. with a sample rack incubated at 25° C. unless stated. The chip was added to the system with HBS-EP used as the running buffer. The chip surface was primed with two 30 second injections of 50 mM NaOH then left until a stable baseline was obtained in all the Flow cells (Fcs).
(§2) All antibodies were immobilised using standard amine coupling chemistry. Immobilisation was carried out at a protein concentration of around 1 μg.ml-1 in 10 mM Acetate buffer pH5.5 to a target response level of 150RUs on three CM5 Series S sensor chips. Kinetic data was obtained at a flow rate of 40 μl·min-1 to minimise any potential mass transfer effects. The blank (no receptor) and a single concentration of the analytes (100 nM) was repeated at the start of the kinetic runs in order to check the stability of both the surface and two receptors over the kinetic analyses. Two repeats of the kinetic analysis were carried out and the results compared.
(§3) Association rates (Kₒₙ) and dissociation rates (Koff) were calculated using a bivalent binding model (BIAcore Evaluation Software version 3.2). The equilibrium dissociation constant (Ko) was calculated as the ratio […].

[2] = target: T2, rhTLR-2 (recombinant human TLR-2) (human, UniProt O60603 21-588, limits assumed); assay: as above
T2 construct: Soluble recombinant protein reconstituted from dry powder, used as SPR analyte; also called glycosylated human receptor analyte
T2 sequence (O60603 21-588 limits assumed): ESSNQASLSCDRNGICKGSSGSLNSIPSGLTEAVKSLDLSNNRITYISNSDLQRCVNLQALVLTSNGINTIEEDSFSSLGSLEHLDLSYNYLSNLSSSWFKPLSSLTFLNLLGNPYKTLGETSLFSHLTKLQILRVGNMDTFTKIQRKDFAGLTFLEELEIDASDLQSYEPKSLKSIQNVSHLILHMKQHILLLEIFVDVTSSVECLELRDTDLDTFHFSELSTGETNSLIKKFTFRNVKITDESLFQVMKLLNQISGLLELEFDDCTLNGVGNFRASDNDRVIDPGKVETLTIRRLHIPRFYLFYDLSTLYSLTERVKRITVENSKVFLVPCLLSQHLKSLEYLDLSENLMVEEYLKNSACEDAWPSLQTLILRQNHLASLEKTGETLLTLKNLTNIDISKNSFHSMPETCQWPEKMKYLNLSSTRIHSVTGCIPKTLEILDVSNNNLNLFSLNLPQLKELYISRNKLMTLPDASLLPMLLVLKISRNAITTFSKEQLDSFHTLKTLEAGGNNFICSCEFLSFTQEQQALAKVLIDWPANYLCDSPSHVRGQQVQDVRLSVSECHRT
Description: as §1, §2, §3

[3] = target: T3, monkey Toll-like Receptor 2 expressed on cynomologus monkey whole blood cells (granulocytes, monocytes) (cynomologus monkey, UniProt Q95M53 19-784); assay: FACS, cynomolgus whole blood, gate Granulocytes (R3), OPN305 + FITC mouse anti-hIgG4 [A]
T3 construct: whole, on cells; also called monkey TLR2
T3 sequence (Q95M53 19-784): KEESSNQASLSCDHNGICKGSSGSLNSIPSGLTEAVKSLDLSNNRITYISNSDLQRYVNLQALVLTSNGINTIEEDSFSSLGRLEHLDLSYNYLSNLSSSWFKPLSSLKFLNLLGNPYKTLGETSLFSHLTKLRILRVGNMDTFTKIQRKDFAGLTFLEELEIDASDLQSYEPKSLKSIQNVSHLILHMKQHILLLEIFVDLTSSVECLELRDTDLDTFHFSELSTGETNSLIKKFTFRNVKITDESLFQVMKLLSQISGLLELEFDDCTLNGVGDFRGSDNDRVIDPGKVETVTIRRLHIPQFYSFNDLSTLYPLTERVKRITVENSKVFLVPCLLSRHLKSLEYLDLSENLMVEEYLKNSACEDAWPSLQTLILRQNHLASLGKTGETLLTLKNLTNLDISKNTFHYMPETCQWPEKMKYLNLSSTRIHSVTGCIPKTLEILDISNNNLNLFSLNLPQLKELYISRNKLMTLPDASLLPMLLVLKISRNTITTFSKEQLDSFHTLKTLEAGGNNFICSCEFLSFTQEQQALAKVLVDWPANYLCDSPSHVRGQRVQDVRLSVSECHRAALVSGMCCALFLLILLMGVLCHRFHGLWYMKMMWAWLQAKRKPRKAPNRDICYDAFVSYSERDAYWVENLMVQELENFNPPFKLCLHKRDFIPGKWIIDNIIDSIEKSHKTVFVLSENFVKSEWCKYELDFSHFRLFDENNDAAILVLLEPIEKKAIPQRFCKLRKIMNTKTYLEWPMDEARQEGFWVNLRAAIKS

[4] = target: T3, monkey Toll-like Receptor 2 expressed …; assay: FACS, cynomolgus whole blood, gate Granulocytes (R3), biotinylated OPN301, detection SA-PECy7 [A]
Description: Cells were then washed and incubated with streptavidin conjugated to PECy7 for a further 30 minutes.
Binding was measured using FACScalibur from Becton Dickinson. FIG. 14A relates to granulocytes. FIG. 14B relates to monocytes. FIG. 14C relates to lymphocytes. […] Accordingly, it can again be seen that OPN305 is competing for monkey Toll-like Receptor 2 binding.

Kd [1] [nM]	koff [1] [s⁻¹]	kon [1] [M⁻¹ s⁻¹]	Kd [2] [nM]	koff [2] [s⁻¹]	kon [2] [M⁻¹ s⁻¹]	binding result [3]	binding result [4]	Binder
11.9	8.2e-05	6770	28.9	8.95e-05	3100	binds	–	OPN-305 fully humanised anti-Toll-like Receptor 2 monoclonal antibody (antibody, human IgG4 S228P, kappa, V domains shown, made in NS0 cells; also called variant 21) VH: QVQLVQSGSELKKPGASVKLSCKASGFTFTTYGINWVRQAPGQGLEWIGWIYPRDGSTNFNENFKDRATITVDTSASTAYMELSSLRSEDTAVYFCARLTGGTFLDYWGQGTTVTVSS VL: DIVLTQSPATLSLSPGERATLSCRASESVEYYGTSLMQWYQQKPGQPPKLLIFGASNVESGVPDRFSGSGSGTDFTLKISRVEAEDVGMYFCQQSRKLPWTFGGGTKVEIKR
15.6	0.000141	9700	48.2	0.00023	4820	–	binds	T2.5 murine anti-Toll-like Receptor 2 monoclonal antibody (clone T2.5, HyCult Biotechnology, catalogue number 1054) (antibody, mouse IgG1, V domains shown, Murine IgG1, bought; also called OPN301) VH: QVQLQQSGPELVNPGASVKLSCKASGFTFTTYGINWVKQGPGQGLEWIGWIYPRDGSTNFNENFKDKAALTVDTSSSTAYMELHSLTSEDSAVYFCARLTGGTFLDYWGQGTTLTVSS VL: DIVLTQSPASLAVSLGQRATISCRASESVEYYGTSLMQWYQQKPGQPPKLLIFGASNVESGVPVRFSGSGSGTDFSLNIHPVEEDDIVMYFCQQSRKLPWTFGGGTKLEIK

— patent US20120164159A1 (OPSONA THERAPEUTICS, published 2012)
